The target of the test is Avi-tagged human eIF4A1 full length (human) (UniProt P60842). The test can be described thus: SPR. Background: In SPR one partner is held on a chip, and binding of the other changes the refractive index at the surface.
Avi-tagged human eIF4A1 full length (human), sequence (P60842 whole entry): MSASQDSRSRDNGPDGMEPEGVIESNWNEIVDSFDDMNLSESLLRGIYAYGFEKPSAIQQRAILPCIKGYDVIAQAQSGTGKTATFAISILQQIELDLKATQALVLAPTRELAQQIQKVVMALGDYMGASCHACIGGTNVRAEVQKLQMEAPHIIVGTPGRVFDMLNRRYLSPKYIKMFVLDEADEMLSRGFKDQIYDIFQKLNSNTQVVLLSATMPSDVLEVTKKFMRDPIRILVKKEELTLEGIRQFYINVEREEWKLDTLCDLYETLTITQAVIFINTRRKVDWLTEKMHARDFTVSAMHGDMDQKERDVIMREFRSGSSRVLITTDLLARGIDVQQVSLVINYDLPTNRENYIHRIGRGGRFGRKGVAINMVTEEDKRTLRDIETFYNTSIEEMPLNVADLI

In the case of “eIF4G-MIF (middle domain of eIF4G, residues 712-1011) (domain or fragment)”, the fold increase in binding affinity with hippuristanol against no compound was found to be 5 fold.
